# Source: patent US9528993B2, “Agents and methods related to screening for resistance to DR5 and reducing resistance to DR5 agonists” (The UAB Research Foundation, priority 2005, dated 2016)
# Columns and labels:
# [1] = test system: TRA-8-resistant tumor cells; experiment: ATPLITE assay of TRA-8-resistant tumor cells transfected with DDX3ΔCARD; type: cell-based; conditions: four lines, adenoviral vector, 500 ng/ml TRA-8 overnight
# Description: Cytotoxicity analysis of tumor cell susceptibility to TRA-8, 2E12, and TRAIL-mediated apoptosis. Cells (1,000 cells per well) were seeded into 96-well plates in triplicate with eight concentrations (double serial dilutions from 1000 ng/ml) of TRA-8, 2E12, or TRAIL. Cell viability was determined after overnight culture using an ATPLITE™ assay according to the manufacturer's instructions (Packard Instruments, Meriden, Conn.). The results are presented as the precentage of viable cells in treated wells compared to medium control wells.
# cIAP1 = molecular target: T1, cIAP1 (Homo sapiens, UniProt Q13490); experiment: Co-immunoprecipitation of DDX3 mutant with cIAP1; type: binding
# T1 construct: endogenous in cells
# T1 sequence (Q13490 whole entry): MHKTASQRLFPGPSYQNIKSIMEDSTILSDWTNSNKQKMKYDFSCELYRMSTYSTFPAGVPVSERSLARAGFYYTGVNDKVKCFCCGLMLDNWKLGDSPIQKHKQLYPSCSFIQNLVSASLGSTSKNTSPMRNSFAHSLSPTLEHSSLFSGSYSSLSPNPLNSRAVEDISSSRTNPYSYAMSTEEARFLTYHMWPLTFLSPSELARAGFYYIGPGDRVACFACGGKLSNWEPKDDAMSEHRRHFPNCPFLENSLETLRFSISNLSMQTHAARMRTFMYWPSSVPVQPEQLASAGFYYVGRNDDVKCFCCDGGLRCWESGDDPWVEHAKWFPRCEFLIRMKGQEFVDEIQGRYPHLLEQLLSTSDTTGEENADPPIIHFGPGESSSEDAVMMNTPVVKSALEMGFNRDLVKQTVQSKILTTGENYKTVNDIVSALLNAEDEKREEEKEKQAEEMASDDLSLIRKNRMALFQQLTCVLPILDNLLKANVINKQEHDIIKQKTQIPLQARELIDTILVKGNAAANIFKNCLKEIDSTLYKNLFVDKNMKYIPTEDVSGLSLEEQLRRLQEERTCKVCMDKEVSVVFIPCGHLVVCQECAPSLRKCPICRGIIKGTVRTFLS
# Description: Anti-DDX3 or anti-TRAIL-R2 antibody was conjugated to Sepharose beads (Sigma). The composition of the TRAIL-R2 DISC was determined as follows. 5×10^6 cells (if not otherwise indicated) were treated with 500 ng/ml of TRA-8 for the indicated time at 37° C. and then lysed in immunoprecipitation-lysis buffer (20 mM Tris-HCl, pH 7.4, 150 mM NaCl, 0.2% NONIDET P40, and 10% glycerol and complete protease inhibitor cock-tail) or lysed without treatment (unstimulated condition). […] After immunoprecipitation, the beads were washed four times with lysis buffer. The beads were then washed five times with 10 mM Tris buffer and resuspended in loading buffer for SDS-PAGE and immunoblotting analyses.
molecule,measurement,setting,value
DDX3ΔCARD: dominant negative mutant DDX3 lacking aa 1-150 (CARD-truncated DDX3) (protein) FSGGNTGINFEKYDDIPVEATGNNCPPHIESFSDVEMGEIIMGNIELTRYTRPTPVQKHAIPIIKEKRDLMACAQTGSGKTAAFLLPILSQIYSDGPGEALRAMKENGRYGRRKQYPISLVLAPTRELAVQIYEEARKFSYRSRVRPCVVYGGADIGQQIRDLERGCHLLVATPGRLVDMMERGKIGLDFCKYLVLDEADRMLDMGFEPQIRRIVEQDTMPPKGVRHTMMFSATFPKEIQMLARDFLDEYIFLAVGRVGSTSENITQKVVWVEESDKRSFLLDLLNATGKDSLTLVFVETKKGADSLEDFLYHEGYACTSIHGDRSQRDREEALHQFRSGKSPILVATAVAARGLDISNVKHVINFDLPSDIEEYVHRIGRTGRVGNLGLATSFFNERNINITKDLLDLLVEAKQEVPSWLENMAYEHHYKGSSRGRSKSSRFSGGFGARDYRQSSGASSSSFSSSRASSSRSGGGGHGSSRGFGGGGYGGFYNSDGYGGNYNSQGVDWWGN,susceptibility to TRA-8-induced apoptosis,[1],regained their susceptibility to TRA-8-induced apoptosis
same,interaction with cIAP1,cIAP1,fails to interact with cIAP1
